Experimental data published in paper PMC2064081 (The Journal of Cell Biology, 2007).

Target: F-actin (rabbit muscle actin, filaments) (rabbit, UniProt P68135 1-377)
Assay: co-sedimentation

B1: IRSp53/IMD (IRSp53/MIM domain of human IRSp53) (domain or fragment)
chain: MSLSRSEEMHRLTENVYKTIMEQFNPSLRNFIAMGKNYEKALAGVTYAAKGYFDALVKMGELASESQGSKELGDVLFQMAEVHRQIQNQLEEMLKSFHNELLTQLEQKVELDSRYLSAALKKYQTEQRSKGDALDKCQAELKKLRKKSQGSKNPQKYSDKELQYIDAISNKQGELENYVSDGYKTALTEERRRFCFLVEKQCAVAKNSAAYHSKGKELLAQKLPLWQQACADPSKIPERAVQLMQQVASN
binding result: binds
